Data reported in the DeepSol protein solubility set.

assay: soluble on expression in E. coli; label from the status in PepcDB or PDB records

| Sequence | soluble on expression in E. coli |
| --- | --- |
| MGSDKIHHHHHHMNTKKESALSFPSAGIESFGERLKELMGDESLRAFANAIDTSEGGVRKWFTQSTMPSFDKMVRIARRYNVNLEWLCTGEGPKFPGETAAYESVICKTEEFSEEYALIDGYHTQVSTGHGAQWDNERVRRKLAFRSKWLRYRGLQPENLRVVFAKGDSMEPTIHSGDSILVDITDANLSDGSIFVLRIGDDLFAKRVQVHIDGSITIISDNKEYREQRVPVAELGLLSVVGKVVWIGKDVK | not soluble |
| MGSDKIHHHHHHMNTLKKITNNISKVIIGKDESIELAAIALIAKGHILLEDVPGTGKTTLAKSLAKSVDAKFQRIQFTADTLPGDVIGLEYFNVKESDFKTRLGPIFANIVLVDEINRAVPRTQSSLLEVMEERTVTIAKQTHSLPEPFLVIATQNPLESAGTFPLPDAQLDRFLLTIRQGYPTREAEKEMMNRFQMNDPLETLHSIISSEEIITMQKRAREVLVGNDVQDYLLEIIEATRKHELIEIGVSPRGTLAFMRAIQARAILNERDYCTPDDIKQLAASICTHRLTLTIEGEMKTTKEQIMKEILHTIDVPVENVR | not soluble |
| MGSDKIHHHHHHMNTNDTELLRLFETLTTEQKIDIARHLLQNKDIKSTTVIATEEDKAISFAQPYVFAFTSNFRVFSDLDISKNEFRVLTYILEYMEFGNLINLSQSSLCKALNIASGNMSNIFKKLKQKGILVEHHGHLYINSNIFAKGLSHQLDEKRKEHLSNARSLHAELEQYPENYTDYSKQERRNLALETETKEIYTDAFIFSKKKKNNAVPNAKNSIKIDKPRKVYKRTKENEAARKDLADAKNHLKAVS | not soluble |
| MGSDKIHHHHHHMNVAILLAAGKGERMSENVPKQFLEIEGRMLFEYPLSTFLKSEAIDGVVIVTRREWFEVVEKRVFHEKVLGIVEGGDTRSQSVRSALEFLEKFSPSYVLVHDSARPFLRKKHVSEVLRRARETGAATLALKNSDALVRVENDRIEYIPRKGVYRILTPQAFSYEILKKAHENGGEWADDTEPVQKLGVKIALVEGDPLCFKVTFKEDLELARIIAREWERIP | soluble |
| MGSDKIHHHHHHMPDGNQSLTVTVLSAIAEIGAEEWDGCAGSHNPFIRHAFLLAMEHSGSATAQTGWTPRHLAVRDAEGRLLAAAPLYLKSHSFGEYVFDWSWAQAYERAGGRYYPKLQCAVPFTPVTGPRLLVRPGEDGPRLRRVLAASMVDLARRLGASSVHVTFPSGQEYEGLGEVGYLQRLGSQYHWSNQGYQSFDDFLGQLSSRKRKQIRKERDAVARSGVRITTLVGTEVKSRHWDVFHAFYESVVDRKWGRAYVNRAFFEELSASNLAEAVVLVWAEDDGEPLGAAFNMLGKDTLYGRTWGGGRHVDFLHFEACYYRALDFAIAHGLARVEAGAQGEHKVSRGYLPTPTYSAHWIADAALAEPVARYLAHERAQVAEDMADQTEEGPFRKA | not soluble |
| MGSDKIHHHHHHMPEKKIDGRRKAAVLLVALGPEKAAQVMKHLDEETVEQLVVEIANIGRVTPEEKKQVLEEFLSLAKAKEMISEGGIEYAKKVLEKAFGPERARKIIERLTSSLQVKPFSFVRDTDPVQLVNFLQSEHPQTIAVVLSYLDPPVAAQILGALPEELQTEVLKRIALLERTSPEVVKEIERNLEKKISGFVSRTFSKVGGIDTAAEIMNNLDRTTEKKIMDKLVQENPELADEIRRRMFVFEDILKLDDRSIQLVLREVDTRDLALALKGASDELKEKIFKNMSKRAAALLKDELEYMGPVRLKDVEEAQQKIINIIRRLEEAGEIVIARGGGEELIM | not soluble |
| MGSDKIHHHHHHMPEKLDTVLGYLKEFPDYYKYVTKKTYTVNEKIIFEDEKAKSIFFIVEGYAAVELEDNLRKTNYISIFVLPYNVLGIDAFSSYPKKKHSITVMSEHLMLYKIDADFLLNILSIKPDVNDFLLTSIADVFARHYALLGMIAKTPKERIYMALENLAVEMGTEDEERNEIVLPNFINQSVLARYCRTTQPNISNLLTELVEEEFLVNKKSPYRIDKDSLDI | not soluble |
| MGSDKIHHHHHHMPEPELMDDPLQARAYAEADFSCGDEALIQRLQEYLISLCKIPSPGSMIVDLGCGPGNICERLQRLWPEVMVLGIDGAQAMLDHALQRQKAMAAELKRLTYRCSNLSSLVNQCVDLKCSAALVVSNSLLHHLHDPNLLWQVTKYLAAPGAFVFHRDLRRPLSTKHAIALQQKHMQEAPSILIRDYLASLHAAFTLEEVQSQLVHAGLDHLHVIEVEDRYLDVFGTI | not soluble |
| MGSDKIHHHHHHMPFLLSGHLSDQSCKAGTLPYKIRIVLILFLCPHMCLTNDEGSAVPATDLAAHQIHILYTDHHGWLYNWLRHKLGNACDAADIAQDTFMRILTRQQPVHLNEPRAYLSTIAHGLVIDHWRRRELERAWLETLASLPEPEAPAPETRLIFLEALIEIDRLLDSLKPRVRTTFLLAQLDGLTCPQIAERLGVSLSTVERYITKALRSCYMLRFEP | not soluble |
| MGSDKIHHHHHHMPIDLREFYQASDPSRTLFVNNSSDGKYYIDFSSVRGGDILGKLKQKITFFKPNEPTCTLFTGHIGCGKSTELLRLQAELEKLGFHVVYFESSDDLEMTDVDIADVLLAIARRVSQSLDKIILESPNKFNELLQGAWKVLNSEVTGVKVKVPNVGDFGVTSEKEKLSLSVGIGEITAKMKNDPTLREKLNQYLAPQKTKLLEAINQELLEPAIAKLKQQGKNGLVVIVDNLDRIDNRAKPWGRPQQEYLFVDQGEFLTKLNCHLIYTMPLSLKFSNDYGMLTQRFPEDPKVLPMVPVHWSDGSLHAQGMALMQQMVLARAFPDMTPEERLNKVTEIFDSAASLERLCQMSGGHVRDVLRLLNTWIMEEMSLPLTRDTLEQVIRSRQNEIMLPISEDEWQLLRHVKEKKKVSDDHGYQKLIRSRFVFEYRDCGESWFDVNPVLAEAKELQ | not soluble |
| MGSDKIHHHHHHMPIYVYWGEDDFAIAKAVTTLRDRVLDPLWTSFNYTSFPPEDSEAPIQALNQVMTPVFGAGGRLVWLMNTNLLQNCPENVLAELTRTLSVIPENSFLLLTCRNKPDERLKSTKLLKQSATEFREFPLIPPWKTELLIQAVNQAAQTVGVKLTPKSAELLAEAVGNDTRLLYNEMEKLRLYAEDNNRPIEENTVTRLVRNTTQNSLQLAAAIRVGDTAKALTILADLINAAEPELRIIATLIGQFRTWLWVKLMVESGERNPQAIAQAAEIGNPKRIYFLQQEVQSLSLRQLISCLPLLLELEVTVKQGRAEISILQIKIIELCQLCQRI | not soluble |
| MGSDKIHHHHHHMPKSKSQKNKLRPRDSKGRFTPLAKAKRTVVSRSRSRSRSASRGARQSRSVGRPMSRRNSVRSISTHTAKSPSLVLVISGSPSPRRRRPSTRRSSSRRSVVRSVSRGSKSRRSSSRGSVYGRTGRSRSSKRSRSRSRPRTRSGSRSSSRSRSGSRRSSRRRSRRRSSSKARGRRASTAKKTPAKRRSRSRSQQKVKRSMSRKG | not soluble |
| MGSDKIHHHHHHMPLCPSCEMKFNSWEDLAKHMDLIANTNSDKSHVMWLNRNISMKRMEVNELANALERFFSTPNSLSMWIRTRFIERFYGDNPHPFIVAMQNPTKGVLLGYVIEHQHFLKNWVKVLSSIVFKTDKDDVLQYELENISVEFIGYNGRPAHYELLLRMGEALGMPREKILSTQPLPSTQSAIKTWRKIAESKTWLETMASMHSLELVADRSLVKYGAKLPYFNPEILSSDEYPQAVKDFLREGYEADVSHAGEALEMVEKYTEEMEMKEQVQITVLKSFDAFSKYLLARLERGFEIEPSLLKRVIK | not soluble |
| MGSDKIHHHHHHMPNIEKYEIFLDFNGNEYEGVEKIYLNSEEEKLELDSVNLEIRSVKSDGKDTKFELKGEKLVIYGKIERELEIKFKGKASRDSILGIYVAPYDGKGMITTQFEAVYARRFIPCFDHPAMKARFKLSVRVQKGLKVISNMPVERIEEDVDGKVIYRFQETPKMSTYLLYLGIDEFEEISDNSKQPTVILATVPGKSKRGLFAINVARKVIEFYEKYFEIPYQLPKVHLIQVPEFAAGAMENWGAITFRETALLADDSSSISQKFRVAEVVAHELAHQWFGNLVTLKWWDDLWLNESFATFMSYKSIKHLFPQWDSEGHLIYDESIGALEDDSLSTTHPIEAHVKDPHEIEQMFDNISYGKGASILKMIEAYVGEENFRRGVVNYLNSFKFGNAEGKDLWNSISNAAGQSIGEIMADWITKPGYPVIFVNAYGNSIRFSQKRFTLLDSGLNEVYKVPITYEINDKFGTLLLDKESAEIRLDEGLKSIKVNINRTGFYRVLYDSLNLAFSSKLNAYEELGLVNDYWNFLLADLIDAKTYFGVIGRFVYTSNSFVSREITSQLLTLYYLFKKNYGKDFLVNQVKIFRKANDDLGKLAYSTVISALARMDEEFALGLSTLFDQYENIDSNIKEAVAIAYAVTNNDFNTLLEKYKRYTIDEEKNRILSAISSLRDPSIVVKVFSLIFERNIKAQDTRFVISSLLHNPHIREEVCSYLMNNFEEVKKFVNTVYGGPWGLGSIVRSMSFCGVDKPKDIIDFLEKVKFKEIERPIKESEERIKVYSRLKQNLP | not soluble |
| MGSDKIHHHHHHMPNTIHQDEGRPIVNSNDHDSPAESRASGVLNLTHLRTLVAVVQEGHLTRAAERLRISQPAASHHLRSLEQQFGLPLFTRTPQGVVPTAAGLQLSEQAARLLASSLELLSTASELRGSASGRIAIGTIEDPSVHAALPSLIKWFHEHYPLIELSIESRNSSSIRQGILTGEINAGFYVSCTNEANLREYEIGQRELVVVAPQSWRERVATATWPELAKLPWVMTTTGSAHSEITAQLFRSHNITIRPALEVNTERLLRAMVSQGVGLGFTRREFAEAEQARGAFFIVPISVHRTTMHFAYARSAETDPLIQILSRGLATVLPVAERLIPSTAKPAEK | not soluble |
| MGSDKIHHHHHHMPPAIAPRFIYCRVCDACGFAARRSRFSGHAASGHRAAASAFLRPRMNVTTSDDCIGVLPDHPWAKHFIVLGYRDGAFSTIPNNFFRNWLDEEAQVGTFHIGRCSGLGVGSIAKYDQGLQKLVIGKNVAGGMRLRFLLNGQHEMRTISTSLFSIYGNGLENAPMPQYPDTVIHNDVWIGDEALFLGGSQIESGCVIGARAVIPPNFRTEAYGIYAGSPARLVRFRFTEKVREKLLQLAWWDMPLDWIKRNNHAFLVDLTANEGRALDTLAALQESKDNATGEAGRQTAAATPV | not soluble |
| MGSDKIHHHHHHMPQDRPTAAQLWSGEISFFSLDTDLIQSAGYSFDAGVLNQLPQVFPKTMQLLLTEVTAREIVSHLMKSVTQAMGEFRKGSDTLKRSVGIDMDQIDKLFEALSVVSSAEAVFRERVDSYAERCRGEVLPIGGGDMMPRIFERYFAGLPPFGARKDKKAEFPDAMSLLLLEDYARDHGTRGVVASRDEGWSEFAGKSEYLYCVKSLDALIALFEATGEHAKTLADRIASAVEDENSFVRAALLDGFRTHIHESSWNVENVYSGVVPRVEAATCEADVISHVLQSDRTKVWNLEEDKSVWVVELTASLTVEVQIDVTFYVWDAIDREEMELDTQTVRRKTNIEVKAFLTVGGAETEVDPAKWDVGVEIAPGQYEIDVGEVEPEYSGD | not soluble |
| MGSDKIHHHHHHMPRIKDGFKGERAIVLPAFLIEELKQDPLGSELYITDIGYYPHAYFHYRKRDTEEVTEFILIYCMEGEGWFELDKHQYAVTANQFFILPEHQAHAYGSNEENPWTIYWIHFNGTKAAFFSAGFDRPKSITPQEDSRIKERLVLFEEIYSSISFGYSKNYMLYATTSLFHFLGSMKFIGEYRDCGSMRNSYRNKDVVQIAIHFMQENLSKTIRLADIAAEVNLSVSYFSNLFEEKTGSSPLRYLTYLRIQEACHYLDFTNLKINQISPLVGYEDSLYFSRLFTKTMGVPPSAYKEKKKG | not soluble |
